The values that follow come from PMC12508155 (Nature Communications, 2025).

In series [1] the target is T1, MgdL (Vreelandella boliviensis, UniProt A0A265DXW6).
T1 construct: gene CE457_11615; full length, N-terminal 6xHis tag with TEV site (cleavage not mentioned), expressed in E. coli BL21
T1 sequence (A0A265DXW6 1-250): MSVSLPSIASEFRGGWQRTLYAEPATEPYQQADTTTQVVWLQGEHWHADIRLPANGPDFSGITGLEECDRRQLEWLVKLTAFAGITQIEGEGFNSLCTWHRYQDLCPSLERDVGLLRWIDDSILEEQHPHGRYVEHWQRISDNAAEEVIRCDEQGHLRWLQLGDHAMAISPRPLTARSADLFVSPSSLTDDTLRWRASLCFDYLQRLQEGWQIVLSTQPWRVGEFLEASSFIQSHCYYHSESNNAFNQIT
Kind of series: LC-MS time course, coupled with MgdH. In kind it is biochemical. The following applies: N-(hydroxymethyl)guanidine formed in situ by MgdH from 0.5 mM methylguanidine with 5 mM 2-OG; MgdL 20 µg/mL.

For series [2], the system named is Gd-II riboswitch (guanidine class II riboswitch) (RNA, riboswitch) GCCCUAGGGACGACCCUAGAAGGCCAAGCAACCUGCGGGACGACCCGC
Kind of series: in-line probing. The following applies: 100 mM KCl, 20 mM MgCl2, 50 mM Tris-HCl pH 8.3, 25 °C, 40 h; for apparent KD: Hill fit, two binding sites.

Substrate in series [3]: CNC(=N)N
As to the kind of experiment: oxygen consumption, Clark-type electrode. The series is classed as biochemical, Vreelandella boliviensis. The following applies: 2-OG fixed at 10 mM (5 mM in Methods), Fe(II), ascorbate, MOPS pH 7.2, 30 °C.

Substrate in series [4]: O=C(O)CCC(=O)C(=O)O
As to the kind of experiment: oxygen consumption, Clark-type electrode. The series is classed as biochemical, Vreelandella boliviensis. The following applies: methylguanidine fixed at 2.5 mM, Fe(II), ascorbate, MOPS pH 7.2, 30 °C.

Substrate in series [5]: CN(C)C(=N)N
Kind of series: oxygen consumption, Clark-type electrode. The series is classed as biochemical, Vreelandella boliviensis. The conditions noted are these: 2-OG 5 mM, Fe(II), ascorbate, MOPS pH 7.2, 30 °C.

A word on the apparent KD: it is the concentration giving half-maximal binding under the conditions of the assay. For orientation: Km means the substrate concentration at which the rate is half of its maximum. The term kcat denotes the maximal rate divided by the concentration of active sites.

Regarding `N=C(N)NCO` [N-(hydroxymethyl)guanidine], in series [1], the “LC-MS time course, coupled with MgdH” value is given as “its presence clearly accelerated the fragmentation of N-(hydroxymethyl)guanidine”.
Regarding `N=C(N)N`, the “apparent KD” value in series [2] is 93 ± 6 µM.
Turning to `CN(C)C(=N)N`, in series [2] (no conformational change, highest concentration not in material), the binding result is recorded as “no”.
On to `CNC(=N)N`, for which, in series [2], the “apparent KD” value is given as 83 ± 5 µM.

B1: MgdH (Vreelandella boliviensis LC1) (protein)
chain: MSQASNDLRLADFQAIPVIDIGDLLSGDLNARKAVAEQLGRAAREVGFFQMVGHGINPSLRQGLINQAKRFFAQPTETKMERYIGLYHHHRGYVPPGEESPDPNNPDMKEAFDLAFELPSDDPDVLAGTALLGPNPWPALEGFRQPVAAYYDAAYQVGRALMGGFALALGHEESHFLHHVTKPPSQLRLIHYPYNPDAEDAQGIGAHTDYECFTLLLPTAPGLEVMNGAGEWIDVPFRDDALVVNIGDMLEIWSNGEFVATSHRVRKVKEERYSFPLFFACDYHTVVAPLPELVKRHGQAFYPPLKAGDHLYAQTIQTFNYLRERLARGEIALPDGAREVGSLGQHGKHKETP
notes: full length, N-terminal 6xHis tag with TEV site (cleavage not mentioned), expressed in E. coli BL21, 41 kDa
Consider B1, for which the Michaelis-Menten constant (Km) in series [3] came to 160 ± 10 µM; in series [4] it was 530 ± 50 µM; in series [5] it was 250 ± 10 µM. Moreover, the results for the kcat in series [3], in series [4] and in series [5] were 19.6 ± 0.4 s⁻¹, 20.5 ± 0.5 s⁻¹ and 17.3 ± 0.2 s⁻¹, respectively.
